Reference: article PMC7603442, “Tracking a TGF-β activator in vivo: sensitive PET imaging of αvβ8-integrin with the Ga-68-labeled cyclic RGD octapeptide trimer Ga-68-Triveoctin” (EJNMMI Research, 2020)
Like-named read-outs stand apart in the source and are kept apart here. One block for each molecule: values may come before it. Starred links: 1 amine or outer side, 2 acyl side, 3 side chain; linkers in the order of their positions; H or OH if unused. Positions of bridges follow the written chain, without caps; N, C: chain ends. Non-standard residues stand in square brackets, D forms with d. Residues, ends and D or L forms follow the SMILES beside them. Chains are numbered I, II in the order given. *: point of attachment. X1 = O=C(CCP(=O)(O)CN1CCN(CP(=O)(O)CCC(=O)NCCCn2cc(CCC(=O)[*:2])nn2)CCN(CP(=O)(O)CCC(=O)NCCCn2cc(CCC(=O)[*:3])nn2)CC1)NCCCn1cc(CCC(=O)[*:1])nn1; X2 = O=C(O)CCP(=O)(O)CN1CCN(CP(=O)(O)CCC(=O)O)CCN(CP(=O)(O)CCC(=O)NCCCn2cc(CCC(=O)*)nn2)CC1; NMeK = CN[C@@H](CCCCN)C(=O)O; Pent4ynoyl = C#CCCC(=O)*

Legend:
αvβ8-integrin = αvβ8-integrin (Homo sapiens, UniProt P06756+P26012); experiment: solid-phase binding assay, αvβ8-integrin affinity
αvβ8-integrin, sequence (P06756 31-992 limits assumed): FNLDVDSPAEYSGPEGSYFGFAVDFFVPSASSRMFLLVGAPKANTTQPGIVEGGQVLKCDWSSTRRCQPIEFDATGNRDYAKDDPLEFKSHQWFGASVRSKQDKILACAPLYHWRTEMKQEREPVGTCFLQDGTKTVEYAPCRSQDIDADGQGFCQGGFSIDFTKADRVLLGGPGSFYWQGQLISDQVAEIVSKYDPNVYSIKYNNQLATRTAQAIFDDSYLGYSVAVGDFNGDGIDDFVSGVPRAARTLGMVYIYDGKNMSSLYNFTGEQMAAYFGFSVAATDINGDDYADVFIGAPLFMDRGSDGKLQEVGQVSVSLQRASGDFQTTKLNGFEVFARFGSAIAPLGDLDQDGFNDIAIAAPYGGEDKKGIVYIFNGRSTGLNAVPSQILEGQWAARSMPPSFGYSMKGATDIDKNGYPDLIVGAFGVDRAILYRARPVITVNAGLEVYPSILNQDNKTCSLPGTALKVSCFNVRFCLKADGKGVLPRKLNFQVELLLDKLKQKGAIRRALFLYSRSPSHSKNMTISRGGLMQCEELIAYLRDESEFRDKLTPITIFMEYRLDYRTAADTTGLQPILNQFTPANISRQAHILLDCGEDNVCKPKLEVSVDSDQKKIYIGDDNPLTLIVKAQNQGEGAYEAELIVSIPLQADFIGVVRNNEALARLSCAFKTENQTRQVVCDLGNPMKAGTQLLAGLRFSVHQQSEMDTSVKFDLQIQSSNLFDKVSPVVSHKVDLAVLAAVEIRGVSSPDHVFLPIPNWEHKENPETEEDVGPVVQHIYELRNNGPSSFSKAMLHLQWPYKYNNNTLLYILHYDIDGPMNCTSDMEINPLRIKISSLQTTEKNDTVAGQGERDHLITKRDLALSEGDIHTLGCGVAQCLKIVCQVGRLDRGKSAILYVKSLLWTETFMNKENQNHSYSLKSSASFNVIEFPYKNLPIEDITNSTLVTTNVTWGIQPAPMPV
αvβ8-integrin, sequence (P26012 43-684 limits assumed): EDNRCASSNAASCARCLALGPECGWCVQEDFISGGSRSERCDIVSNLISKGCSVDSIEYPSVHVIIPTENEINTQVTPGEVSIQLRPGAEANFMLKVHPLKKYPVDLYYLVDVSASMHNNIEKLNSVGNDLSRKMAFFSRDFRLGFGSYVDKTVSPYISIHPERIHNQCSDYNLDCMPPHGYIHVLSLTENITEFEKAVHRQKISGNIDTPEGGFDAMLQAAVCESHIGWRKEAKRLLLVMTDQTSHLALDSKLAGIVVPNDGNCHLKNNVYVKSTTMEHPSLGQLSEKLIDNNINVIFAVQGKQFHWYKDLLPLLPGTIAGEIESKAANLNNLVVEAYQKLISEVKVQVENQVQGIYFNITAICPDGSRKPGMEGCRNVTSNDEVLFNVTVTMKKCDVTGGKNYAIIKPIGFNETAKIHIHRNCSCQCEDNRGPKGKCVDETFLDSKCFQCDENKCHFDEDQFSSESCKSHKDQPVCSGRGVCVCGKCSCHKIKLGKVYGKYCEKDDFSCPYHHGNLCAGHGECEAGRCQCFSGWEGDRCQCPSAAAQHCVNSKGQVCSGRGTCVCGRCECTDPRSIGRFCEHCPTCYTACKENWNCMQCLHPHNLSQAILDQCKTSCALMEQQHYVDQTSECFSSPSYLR
Protocol: (§1) Synthesis and characterization of Triveoctin is described in the Additional file 1. The integrin affinities were determined by a solid-phase binding assay, applying a previously described protocol. β8 immunohistochemistry stainings were done as described. All animal studies have been performed in accordance with general animal welfare regulations in Germany and the institutional guidelines for the care and use of animals. ^68Ga radiolabeling, cultivation of MeWo cells and generation of respective subcutaneous xenografts, determination of n-octanol/phosphate-buffered saline (PBS) distribution coefficients (log D) and ex-vivo biodistribution studies, and µPET imaging were done as described previously in detail (a brief summary is provided in the following).

[1] = test system: MeWo (human melanoma) xenografted SCID mice; design: method as in PMID 23283986; settings: cited from earlier work
in vivo = experiment: in vivo; design: species or system mice; settings: female, CB17 SCID, mouse; for tissue uptake at 1 h: 43 pmol
Protocol: as §1
(§2) MeWo cells (ATCC®, HTB-65™) were grown at 37 °C under 5% CO2 atmosphere in DMEM/HAM (Biochrom, Berlin, Germany) with 10% fetal calf serum (Thermo Fisher). Approx. 10^7 cells were subcutaneously injected with Matrigel® (Corning, #354262) into the right shoulder of 6–8-week-old female CB17 severe combined immunodeficiency (SCID) mice, which were used about 2–3 weeks later for PET and biodistribution.
(§3) Fig. 3 Biodistribution of ^68Ga-Triveoctin, 60 min p.i. (43 ± 13 pmol, n = 6; blockade with 60 nmol Triveoctin injected 5 min prior to the radiopharmaceutical, n = 4) in MeWo-xenografted SCID mice, uptakes expressed as % injected dose per gram tissue; mean ± SD. Data for ^68Ga-TRAP-AvB8 (control: 77 ± 24 pmol, n = 11; blockade: n = 3) were taken from the literature and are shown for comparison. Data in numerical form are given in the Additional file 1: Table S1

[2] = test system: MeWo (human melanoma) xenografted SCID mice; experiment: in vivo; settings: mouse
Protocol: as §1, §2, §3

clinical = settings: human, in vivo
Protocol: Using a fully automated synthesis module, the eluate of a ^68Ge/^68Ga generator (by Eckert & Ziegler, Berlin, Germany; 0.1 M HCl, approx. 500 MBq ^68Ga) was directly eluted into the reaction vial containing Triveoctin (35 µg) and adjusted to pH 4.5 with sodium acetate. After heating for 4 min at 95 °C, the mixture was passed over a solid-phase extraction cartridge (Waters Sep-Pak®light tC-18), which was purged with water (10 mL). Thereafter, ^68Ga-Triveoctin was eluted with ethanol/water mixture (1:1 by volume, 1 mL), followed by isotonic saline (9 mL). The formulation containing approx. 5% ethanol was passed through a 0.22-µm filter into a sterile injection vial and dispensed for injection. Quality control was done by radio-HPLC using a Shimadzu system equipped with a column Chromolith® Performance RP18e (Phenomenex, Aschaffenburg, Germany), gradient 0–100% acetonitrile in water within 15 min, flow rate 1.4 mL/min, tR = 8.53 min, and met the in-house specifications for ^68Ga-labeled compounds (> 95%).
(§4) Application of ^68Ga-Triveoctin was done according to §13/2b of the German Drug Act (Arzneimittelgesetz). A human subject received a single intravenous injection of ^68Ga-Triveoctin (173 MBq, approx. 25 µg; for radiolabeling and QC, see Additional file 1). […] 25 min p.i., the patient underwent a list-mode PET/CT imaging protocol on a Biograph Vision 600 (Siemens Healthineers, Knoxville, USA). A standard low-dose CT was acquired from the whole body (X-ray tube current 10 mA, tube voltage 100 kV, spiral pitch factor 1.5, 3.0 mm slice thickness) and used for absolute scatter correction of the subsequent PET scan. The emission PET scan was acquired over 19 min using continuous bed motion with a speed of 2.2 mm s^–1 for the legs and 1.4 mm s^–1 for the remaining body. The PET scan was repeated 45 min p.i. without another CT scan. Another PET/CT imaging sequence was acquired 90 min p.i. as the subject had to leave the scanner for voiding. All scans were obtained during normal breathing. PET images were reconstructed using the TRueX algorithm with 4 iterations, 5 subsets, time-of-flight (TOF) application and without filtering. […] The dosimetry values were calculated using OLINDA V1.1 [24] on the basis of the human PET data.

[3] = design: species or system human; settings: in vivo
Protocol: as §4
Assuming that an activity of 100 MBq ^68Ga-Triveoctin is sufficient for a PET scan at 30–60 min p.i., up to 6 investigations could be performed without exceeding the 20 mSv limit.

[4] = non-radioactive 69/71Ga(III) complexes where applicable, read-out: αvβ8-Integrin affinity IC50 (95% confidence interval)
[5] = female, CB17 SCID, 43 pmol, 1 h

Structure (SMILES): CC(C)C[C@@H]1NC(=O)CNC(=O)[C@H](CCCCNC(=O)CCc2cn(CCCNC(=O)CCP(=O)(O)CN3CCN(CP(=O)(O)CCC(=O)O)CCN(CP(=O)(O)CCC(=O)O)CC3)nn2)N(C)C(=O)[C@H]2CCCN2C(=O)[C@H](CC(C)C)NC(=O)[C@H](CC(=O)O)NC(=O)CNC(=O)[C@H](CCCNC(=N)N)NC1=O [^68Ga-TRAP-AvB8, metal not drawn] (cyclo(GLRGDL[dP][NMeK](X2)))
IC50 (αvβ8-integrin): 38 nM | kidney uptake ([1]; 60 min p.i., average): 3.6 %IA/g | tumor uptake upon blockade ([1]; blockade n = 3): 0.25 %IA/g | tumor uptake ([1]; control n = 11): 1.0 %IA/g

IC50 (αvβ8-integrin; [4]): 17 nM
Structure (SMILES): C#CCCC(=O)NCCCC[C@H]1C(=O)NCC(=O)N[C@@H](CC(C)C)C(=O)N[C@@H](CCCNC(=N)N)C(=O)NCC(=O)N[C@@H](CC(=O)O)C(=O)N[C@@H](CC(C)C)C(=O)N2CCC[C@@H]2C(=O)N1C [AvB8-pentynoic amide, cyclo(GLRGDLp(NMe)K(pent-4-ynoic amide))] (cyclo(GLRGDL[dP][NMeK](Pent4ynoyl)))

IC50 (αvβ8-integrin; [4]): 5.7 nM
Structure (SMILES): CC(C)C[C@@H]1NC(=O)CNC(=O)[C@H](CCCCNC(=O)CCc2cn(CCCNC(=O)CCP(=O)(O)CN3CCN(CP(=O)(O)CCC(=O)NCCCn4cc(CCC(=O)NCCCC[C@H]5C(=O)NCC(=O)N[C@@H](CC(C)C)C(=O)N[C@@H](CCCNC(=N)N)C(=O)NCC(=O)N[C@@H](CC(=O)O)C(=O)N[C@@H](CC(C)C)C(=O)N6CCC[C@@H]6C(=O)N5C)nn4)CCN(CP(=O)(O)CCC(=O)NCCCn4cc(CCC(=O)NCCCC[C@H]5C(=O)NCC(=O)N[C@@H](CC(C)C)C(=O)N[C@@H](CCCNC(=N)N)C(=O)NCC(=O)N[C@@H](CC(=O)O)C(=O)N[C@@H](CC(C)C)C(=O)N6CCC[C@@H]6C(=O)N5C)nn4)CC3)nn2)N(C)C(=O)[C@H]2CCCN2C(=O)[C@H](CC(C)C)NC(=O)[C@H](CC(=O)O)NC(=O)CNC(=O)[C@H](CCCNC(=N)N)NC1=O [^68Ga-Triveoctin, metal not drawn] (I: cyclo(RGDL[dP][NMeK]GL) / II: cyclo(RGDL[dP][NMeK]GL) / III: cyclo(RGDL[dP][NMeK]GL); linker I:6-II:6-III:6 via X1)
tissue uptake at 1 h (in vivo; Adrenals uptake): 0.39 ± 0.23 %ID/g | tissue uptake at 1 h (in vivo; Blood uptake): 0.28 ± 0.06 %ID/g | tissue uptake at 1 h (in vivo; Eye uptake): 1.95 ± 0.44 %ID/g | tissue uptake at 1 h (in vivo; Heart (myocard) uptake): 0.16 ± 0.04 %ID/g | tissue uptake at 1 h (in vivo; Kidneys uptake): 35.3 ± 6.3 %ID/g | tissue uptake at 1 h (in vivo; Large intestine (empty) uptake): 0.17 ± 0.03 %ID/g | tissue uptake at 1 h (in vivo; Liver uptake): 0.28 ± 0.06 %ID/g | tissue uptake at 1 h (in vivo; Lung uptake): 0.68 ± 0.19 %ID/g | tissue uptake at 1 h (in vivo; Muscle uptake): 0.07 ± 0.01 %ID/g | tissue uptake at 1 h (in vivo; Pancreas uptake): 0.12 ± 0.02 %ID/g | tissue uptake at 1 h (in vivo; Small intestine (empty) uptake): 0.18 ± 0.09 %ID/g | tissue uptake at 1 h (in vivo; Spleen uptake): 0.23 ± 0.03 %ID/g | tissue uptake at 1 h (in vivo; Stomach (empty) uptake): 0.22 ± 0.07 %ID/g | tissue uptake at 1 h (in vivo; Tumor MeWo uptake): 1.86 ± 0.31 %ID/g | tissue to tissue ratio at 1 h (in vivo; total radioactivity, kidney-to-blood ratio): 126 | tissue to tissue ratio at 1 h (in vivo; total radioactivity, kidney-to-muscle ratio): 505 | tissue to tissue ratio at 1 h (in vivo; tumor/blood ratio): 6.7 ± 0.7 | tissue to tissue ratio at 1 h (in vivo; tumor/heart (myocard) ratio): 11.7 ± 1.7 | tissue to tissue ratio at 1 h (in vivo; tumor/kidneys ratio): 0.1 | tissue to tissue ratio at 1 h (in vivo; tumor/liver ratio): 6.8 ± 1.4 | tissue to tissue ratio at 1 h (in vivo; tumor/lung ratio): 2.8 ± 0.7 | tissue to tissue ratio at 1 h (in vivo; tumor/muscle ratio): 29 ± 6 | tissue to tissue ratio at 1 h (in vivo; tumor/pancreas ratio): 15.7 ± 3.5 | tissue to tissue ratio at 1 h (in vivo; tumor/spleen ratio): 7.9 ± 1.5 | tissue to tissue ratio at 1 h (in vivo; tumor/stomach (empty) ratio): 8.8 ± 2.2 | Kidneys uptake [2, 5]: 35 %IA/g | Tumor MeWo uptake [2, 5]: 1.9 %IA/g | tumor/adrenals ratio [2]: 5.7 ± 2.3 | tumor/blood ratio [2]: 6.7 | tumor/eye ratio [2]: 1.0 ± 0.2 | tumor/large intestine (empty) ratio [2]: 11.0 ± 1.6 | tumor/liver ratio [2]: 6.8 | tumor/muscle ratio [2]: 29 | tumor/small intestine (empty) ratio [2]: 11.6 ± 3.9 | half-life (clinical): 1.8 h | kidney-to-blood ratio (clinical): approx. 15 | kidney-to-muscle ratio (clinical): ~30 | SUV at 1.5 h (clinical; iv, 173 MBq, total radioactivity): 6.1 SUV | tissue to tissue ratio at 1.5 h (clinical; iv, 173 MBq, total radioactivity, kidney-to-blood ratio): 15 | tissue to tissue ratio at 1.5 h (clinical; iv, 173 MBq, total radioactivity, kidney-to-blood ratio, times lower in human than in mice): 8 | tissue to tissue ratio at 1.5 h (clinical; iv, 173 MBq, total radioactivity, kidney-to-muscle ratio): 30 | tissue to tissue ratio at 1.5 h (clinical; iv, 173 MBq, total radioactivity, kidney-to-muscle ratio, times lower in human than in mice): 16 | Dose estimate, Adrenals [3]: 2.69E−02 mGy/MBq | Dose estimate, Brain [3]: 5.23E−03 mGy/MBq | Dose estimate, Breasts [3]: 5.46E−03 mGy/MBq | Dose estimate, Gallbladder wall [3]: 1.00E−02 mGy/MBq | Dose estimate, Heart wall [3]: 1.52E−02 mGy/MBq | Dose estimate, Kidneys [3]: 2.60E−01 mGy/MBq | Dose estimate, LLI wall [3]: 2.08E−02 mGy/MBq | Dose estimate, Liver [3]: 2.43E−02 mGy/MBq | Dose estimate, Lungs [3]: 7.83E−03 mGy/MBq | Dose estimate, Muscle [3]: 7.23E−03 mGy/MBq | Dose estimate, Osteogenic cells [3]: 8.89E−03 mGy/MBq | Dose estimate, Ovaries [3]: 1.13E−02 mGy/MBq | Dose estimate, Pancreas [3]: 2.01E−02 mGy/MBq | Dose estimate, Red marrow [3]: 6.48E−03 mGy/MBq | Dose estimate, Skin [3]: 5.60E−03 mGy/MBq | Dose estimate, Small intestine [3]: 3.52E−02 mGy/MBq | Dose estimate, Spleen [3]: 4.42E−02 mGy/MBq | Dose estimate, Stomach wall [3]: 1.95E−02 mGy/MBq | Dose estimate, Testes [3]: 8.14E−03 mGy/MBq | Dose estimate, Thymus [3]: 6.17E−03 mGy/MBq | Dose estimate, Thyroid [3]: 5.72E−03 mGy/MBq | Dose estimate, Total body [3]: 9.41E−03 mGy/MBq | Dose estimate, ULI wall [3]: 1.57E−02 mGy/MBq | Dose estimate, Urinary bladder wall [3]: 3.42E−01 mGy/MBq | Dose estimate, Uterus [3]: 1.57E−02 mGy/MBq | effective dose (ICRP 60) [3]: 3.00E−02 mSv/MBq
